Source: PMC12990809

Legend:
Assay in all cases: pulldown
[1] = molecular target: T1, Tb927.7.2140 V21F (Trypanosoma brucei) (UniProt D6XKD1); conditions: 20 nM protein, 1.5 uM RNA pool; 20 mM HEPES pH 7.8, 70 mM KCl, 10 mM NaCl, 10% glycerol, 2 mM DTT, 0.1 ug/uL BSA; 30 min, 4 C
T1 sequence: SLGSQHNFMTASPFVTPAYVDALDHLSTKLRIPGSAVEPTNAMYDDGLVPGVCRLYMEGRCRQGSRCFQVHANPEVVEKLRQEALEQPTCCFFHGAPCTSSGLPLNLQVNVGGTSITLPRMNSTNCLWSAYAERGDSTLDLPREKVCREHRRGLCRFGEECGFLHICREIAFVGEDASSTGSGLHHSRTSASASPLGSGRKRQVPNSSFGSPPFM

[2] = molecular target: hnrpkl (Tetraodon nigroviridis) (UniProt H3CQ29); conditions: 20 nM protein, 1.5 uM RNA pool; 20 mM HEPES pH 7.8, 70 mM KCl, 10 mM NaCl, 10% glycerol, 2 mM DTT, 0.1 ug/uL BSA; 30 min, 4 C
Chain of hnrpkl (Tetraodon nigroviridis) (H3CQ29 entry or part of it): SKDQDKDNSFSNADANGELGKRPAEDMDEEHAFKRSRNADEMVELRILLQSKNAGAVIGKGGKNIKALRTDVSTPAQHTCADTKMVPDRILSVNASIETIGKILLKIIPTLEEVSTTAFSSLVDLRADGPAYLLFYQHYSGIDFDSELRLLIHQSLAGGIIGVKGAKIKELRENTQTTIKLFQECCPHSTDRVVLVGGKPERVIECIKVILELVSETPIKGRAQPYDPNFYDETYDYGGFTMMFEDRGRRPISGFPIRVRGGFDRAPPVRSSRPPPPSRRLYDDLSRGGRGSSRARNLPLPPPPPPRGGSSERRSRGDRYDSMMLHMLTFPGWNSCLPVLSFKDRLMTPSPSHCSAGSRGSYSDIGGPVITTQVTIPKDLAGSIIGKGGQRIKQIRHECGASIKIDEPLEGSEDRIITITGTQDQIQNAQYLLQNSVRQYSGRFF

[3] = molecular target: T2, srsf3 (Xenopus tropicalis) (UniProt A0A8J0SH10); conditions: 20 nM protein, 1.5 uM RNA pool; 20 mM HEPES pH 7.8, 70 mM KCl, 10 mM NaCl, 10% glycerol, 2 mM DTT, 0.1 ug/uL BSA; 30 min, 4 C
T2 sequence: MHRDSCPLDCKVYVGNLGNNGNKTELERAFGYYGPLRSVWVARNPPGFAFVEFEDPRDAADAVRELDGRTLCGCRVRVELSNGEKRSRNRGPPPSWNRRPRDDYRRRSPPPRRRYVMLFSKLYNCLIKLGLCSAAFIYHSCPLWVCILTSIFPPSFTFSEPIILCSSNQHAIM

[4] = molecular target: T3, PK21303.1 (Cannabis sativa) (UniProt A0A803NH45); conditions: 20 nM protein, 1.5 uM RNA pool; 20 mM HEPES pH 7.8, 70 mM KCl, 10 mM NaCl, 10% glycerol, 2 mM DTT, 0.1 ug/uL BSA; 30 min, 4 C
T3 sequence: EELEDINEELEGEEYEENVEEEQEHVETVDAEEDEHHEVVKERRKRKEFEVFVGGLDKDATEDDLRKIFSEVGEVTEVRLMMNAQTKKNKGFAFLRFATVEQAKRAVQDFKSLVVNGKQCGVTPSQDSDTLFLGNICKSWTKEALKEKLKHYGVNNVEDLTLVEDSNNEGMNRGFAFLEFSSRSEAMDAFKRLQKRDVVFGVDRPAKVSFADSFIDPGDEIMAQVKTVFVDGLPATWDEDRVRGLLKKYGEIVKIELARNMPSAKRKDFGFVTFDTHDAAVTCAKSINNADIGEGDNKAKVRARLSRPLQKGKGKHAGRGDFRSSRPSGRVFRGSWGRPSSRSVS

[5] = molecular target: khdrbs1b (Tetraodon nigroviridis) (UniProt H3D6B2); conditions: 20 nM protein, 1.5 uM RNA pool; 20 mM HEPES pH 7.8, 70 mM KCl, 10 mM NaCl, 10% glycerol, 2 mM DTT, 0.1 ug/uL BSA; 30 min, 4 C
Chain of khdrbs1b (Tetraodon nigroviridis) (H3D6B2 entry or part of it): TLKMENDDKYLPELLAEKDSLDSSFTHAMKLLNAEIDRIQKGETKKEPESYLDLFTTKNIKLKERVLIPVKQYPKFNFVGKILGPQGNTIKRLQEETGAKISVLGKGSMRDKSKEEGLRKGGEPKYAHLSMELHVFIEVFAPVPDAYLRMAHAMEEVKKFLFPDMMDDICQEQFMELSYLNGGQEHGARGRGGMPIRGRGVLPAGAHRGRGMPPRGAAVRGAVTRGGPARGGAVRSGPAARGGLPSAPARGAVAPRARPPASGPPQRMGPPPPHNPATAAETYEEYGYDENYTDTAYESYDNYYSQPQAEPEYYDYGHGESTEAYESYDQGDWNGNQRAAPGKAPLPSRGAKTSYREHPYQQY

[6] = molecular target: T4, NAB2 (Saccharomyces cerevisiae) (UniProt P32505); conditions: 20 nM protein, 1.5 uM RNA pool; 20 mM HEPES pH 7.8, 70 mM KCl, 10 mM NaCl, 10% glycerol, 2 mM DTT, 0.1 ug/uL BSA; 30 min, 4 C (protocol of this paper; not …); cited from earlier work
T4 sequence: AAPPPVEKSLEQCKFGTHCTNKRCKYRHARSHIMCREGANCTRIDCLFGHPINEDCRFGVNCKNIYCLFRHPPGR

[7] = molecular target: T5, NCU04254 (Neurospora crassa) (UniProt Q7S7T0); conditions: 20 nM protein, 1.5 uM RNA pool; 20 mM HEPES pH 7.8, 70 mM KCl, 10 mM NaCl, 10% glycerol, 2 mM DTT, 0.1 ug/uL BSA; 30 min, 4 C
T5 sequence: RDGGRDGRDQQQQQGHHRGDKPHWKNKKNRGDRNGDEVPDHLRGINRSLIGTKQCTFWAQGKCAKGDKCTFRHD

[8] = molecular target: T6, SCHCODRAFT_104251 ins42_DR;V186I (Schizophyllum commune) (UniProt A0ACF2EEN8); conditions: 20 nM protein, 1.5 uM RNA pool; 20 mM HEPES pH 7.8, 70 mM KCl, 10 mM NaCl, 10% glycerol, 2 mM DTT, 0.1 ug/uL BSA; 30 min, 4 C
T6 sequence: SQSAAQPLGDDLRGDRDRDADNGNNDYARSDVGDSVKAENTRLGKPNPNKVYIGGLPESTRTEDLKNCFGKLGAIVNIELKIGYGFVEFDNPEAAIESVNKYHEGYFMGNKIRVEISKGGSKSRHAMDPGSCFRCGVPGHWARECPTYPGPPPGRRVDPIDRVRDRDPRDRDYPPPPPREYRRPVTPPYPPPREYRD

[9] = molecular target: T7, RBM24 (Tetraodon nigroviridis) (UniProt H3DM38); conditions: 20 nM protein, 1.5 uM RNA pool; 20 mM HEPES pH 7.8, 70 mM KCl, 10 mM NaCl, 10% glycerol, 2 mM DTT, 0.1 ug/uL BSA; 30 min, 4 C
T7 sequence: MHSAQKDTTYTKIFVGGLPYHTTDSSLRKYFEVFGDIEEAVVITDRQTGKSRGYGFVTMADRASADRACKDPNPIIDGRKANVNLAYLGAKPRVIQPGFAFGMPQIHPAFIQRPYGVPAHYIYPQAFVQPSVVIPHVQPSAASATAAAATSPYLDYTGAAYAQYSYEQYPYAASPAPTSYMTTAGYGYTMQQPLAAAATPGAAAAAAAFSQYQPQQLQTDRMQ

[10] = molecular target: T8, CBG00421 (Caenorhabditis briggsae) (UniProt A8WN19); conditions: 20 nM protein, 1.5 uM RNA pool; 20 mM HEPES pH 7.8, 70 mM KCl, 10 mM NaCl, 10% glycerol, 2 mM DTT, 0.1 ug/uL BSA; 30 min, 4 C
T8 sequence: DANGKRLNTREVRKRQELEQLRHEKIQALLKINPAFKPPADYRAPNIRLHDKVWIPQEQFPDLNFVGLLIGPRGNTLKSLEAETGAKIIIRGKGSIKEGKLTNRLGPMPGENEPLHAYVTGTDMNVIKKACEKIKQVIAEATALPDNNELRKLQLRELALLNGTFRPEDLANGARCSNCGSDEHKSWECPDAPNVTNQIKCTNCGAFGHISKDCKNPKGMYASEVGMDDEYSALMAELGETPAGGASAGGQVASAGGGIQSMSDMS

MBNL1 (Homo sapiens) = molecular target: T9, MBNL1 (Homo sapiens) (UniProt Q9NR56); conditions: 20 nM protein, 1.5 uM RNA pool; 20 mM HEPES pH 7.8, 70 mM KCl, 10 mM NaCl, 10% glycerol, 2 mM DTT, 0.1 ug/uL BSA; 30 min, 4 C (protocol of this paper; not …); cited from earlier work
T9 sequence: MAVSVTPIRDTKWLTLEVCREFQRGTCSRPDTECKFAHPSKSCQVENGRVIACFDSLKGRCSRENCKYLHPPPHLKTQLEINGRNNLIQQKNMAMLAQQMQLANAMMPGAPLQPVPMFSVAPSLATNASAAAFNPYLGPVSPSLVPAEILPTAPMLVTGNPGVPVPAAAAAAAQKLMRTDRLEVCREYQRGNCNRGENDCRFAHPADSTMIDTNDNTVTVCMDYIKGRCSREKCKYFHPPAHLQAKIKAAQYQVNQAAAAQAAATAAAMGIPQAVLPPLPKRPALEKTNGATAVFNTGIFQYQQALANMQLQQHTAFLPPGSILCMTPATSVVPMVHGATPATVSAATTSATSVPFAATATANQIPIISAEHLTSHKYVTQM

[11] = molecular target: T10, msi (Drosophila melanogaster) (UniProt H9ZJL0); conditions: 20 nM protein, 1.5 uM RNA pool; 20 mM HEPES pH 7.8, 70 mM KCl, 10 mM NaCl, 10% glycerol, 2 mM DTT, 0.1 ug/uL BSA; 30 min, 4 C (protocol of this paper; not …); cited from earlier work
T10 sequence: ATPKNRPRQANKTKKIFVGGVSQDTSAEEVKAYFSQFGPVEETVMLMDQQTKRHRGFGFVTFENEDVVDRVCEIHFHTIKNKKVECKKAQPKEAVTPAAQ

## AAAACG [RNAcompete motif RNCMPT00834]
[1]
  binding signal (z-score (mean of top ten 7-mers)): 26

## AAACCCAA [RNAcompete motif RNCMPT01679]
[2]
  binding signal (z-score (mean of top ten 7-mers)): 6.12

## AACAAC [RNAcompete motif RNCMPT01680]
[3]
  binding signal (z-score (mean of top ten 7-mers)): 9.74

## AGAAGGA [RNAcompete motif RNCMPT00831]
[4]
  binding signal (z-score (mean of top ten 7-mers)): 6.57

## AUAAAAG [RNAcompete motif RNCMPT01673]
[5]
  binding signal (z-score (mean of top ten 7-mers)): 8.63

## CCUCU [RNAcompete motif RNCMPT00042]
[6]
  binding signal (z-score (mean of top ten 7-mers)): 6.1

## GAAUGG [RNAcompete motif RNCMPT00835]
[7]
  binding signal (z-score (mean of top ten 7-mers)): 8.35

## GACUA [RNAcompete motif RNCMPT00866]
[8]
  binding signal (z-score (mean of top ten 7-mers)): 6.58

## GAGUGUG [RNAcompete motif RNCMPT01677]
[9]
  binding signal (z-score (mean of top ten 7-mers)): 9.92

## GANUAAU [RNAcompete motif RNCMPT00840]
[10]
  binding signal (z-score (mean of top ten 7-mers)): 14.5

## GCUUGC [RNAcompete motif RNCMPT00038]
MBNL1 (Homo sapiens)
  binding signal (z-score (mean of top ten 7-mers)): 11.2

## GUAGUU [RNAcompete motif RNCMPT00040]
[11]
  binding signal (z-score (mean of top ten 7-mers)): 12.5
